Measurements from paper PMC10370356, “Molecular dissection studies of TAC1, a transcription activator of Candida drug resistance genes of the human pathogenic fungus Candida albicans” (Frontiers in Microbiology, 2023).

Biological target: T1, His-tagged C. albicans TATA box Binding Protein (TBP) (C. albicans, UniProt O43133 1-238)
T1 construct: Vector pET28a; fusion protein said to be 30 kDa; also called TBP1; TBP-pET28a; source: E. coli BL21 (DE3), purified (Ni-NTA)
T1 sequence: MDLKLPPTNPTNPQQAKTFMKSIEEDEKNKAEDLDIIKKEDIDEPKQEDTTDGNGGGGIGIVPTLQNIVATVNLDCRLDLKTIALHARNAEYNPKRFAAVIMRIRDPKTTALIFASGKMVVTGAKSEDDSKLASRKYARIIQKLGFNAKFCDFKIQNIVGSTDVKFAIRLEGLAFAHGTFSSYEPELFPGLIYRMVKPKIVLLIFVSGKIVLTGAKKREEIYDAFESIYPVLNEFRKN
Assay: pull-down; GST-AAD and His-TBP incubated with Glutathione Sepharose 4B beads, 3 h, 4 C, 20 mM HEPES pH 7.5, 200 mM NaCl, 0.1 mM EDTA, 10% glycerol, 0.1% NP-40; washes with 500 mM NaCl; eluted with 10 mM reduced glutathione; immunoblot with anti-GST and anti-His
Settings: both partners purified

B1: GST-tagged Acidic Activation Domain (AAD) of Tac1p (domain or fragment)
chain: MNPSPTITNNTYNSNINTGSNSTGEPQVCYAQSPSYNASLSNIINNESTGRSPATSTSINQSMMNENYDLFNDYLIDNSAVNLPFSQFNNLPNFFFDNNLGI
notes: amplified from genomic DNA of strain SC5314; Vector pGEX-KG; fusion protein said to be 33 kDa; several closely spaced bands (degradation) on the anti-GST blot; The introduction gives other limits for the AAD (nucleotides 1354-2946); also called Tac1-AAD; TAC1-AAD; source: E. coli BL21 (DE3), purified (Glutathione Sepharose 4B)
B1: binds.
